From PMC13572408

Biological target: His6-AstR (Acinetobacter baumannii ATCC 17978VU)
Assay: SEC; purified His6-AstR; size estimated with standard curves; Size Exclusion Buffer (50 mM Tris, 300 mM NaCl, pH 8)

- stoichiometry N: 2
Substance: His6-AstR (natural protein)
